Consider 125 sequences from the supplement of paper PMC9112550, “Optimization of the antimicrobial peptide Bac7 by deep mutational scanning” (BMC Biology, 2022).

The data set deals with Escherichia coli TOP10. The data set can be described thus: shrunken log2 fold change of peptide-encoding DNA abundance (4.5 h post-induction vs induction); higher = less antimicrobial activity (less host growth inhibition). The settings on record: time post-induction: 4.5 h; library: site-saturation at positions 5, 18, 19, 20.
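Note: peptides expressed intracellularly from a pBAD plasmid library in pooled LB shake-flask culture, induced with 0.3% L-arabinose, DNA abundance read by NGS, three biological replicates, DESeq2 with apeglm shrinkage.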

RRIRERPPRLPRPRPRPWMPPRP: the “shrunken log2 fold change” value is -0.062. The value for RRIRQRPPRLPRPRPRPKSPPRP was -0.089; that for RRIRLRPPRLPRPRPRPVDEPRP was -0.0573; that for RRIRQRPPRLPRPRPRPDMPPRP was -0.2. Take RRIRGRPPRLPRPRPRPAAQPRP: the “shrunken log2 fold change” value stood at 1.12. For RRIRDRPPRLPRPRPRPQMLPRP, the “shrunken log2 fold change” value is 0.269.

In the case of RRIRKRPPRLPRPRPRPQLSPRP, the “shrunken log2 fold change” value is -0.272. Under RRIRSRPPRLPRPRPRPCLWPRP stands 0.0729. For RRIRKRPPRLPRPRPRPRVNPRP, the “shrunken log2 fold change” value came to 0.0555. Take RRIRQRPPRLPRPRPRPYKMPRP: the “shrunken log2 fold change” value is -0.292. Take RRIRCRPPRLPRPRPRPLAYPRP: the “shrunken log2 fold change” value was -0.616. Regarding RRIRWRPPRLPRPRPRPCQFPRP, the “shrunken log2 fold change” value is -0.00192. In the case of RRIRLRPPRLPRPRPRPAILPRP, the “shrunken log2 fold change” value turned out to be 0.0331. As to RRIRCRPPRLPRPRPRPFNGPRP, the “shrunken log2 fold change” value is -0.148. Turning to RRIRERPPRLPRPRPRPPHAPRP, the “shrunken log2 fold change” value is 0.229.

As to RRIRPRPPRLPRPRPRPMWSPRP, the “shrunken log2 fold change” value is -0.276. Consider RRIRQRPPRLPRPRPRPCKSPRP, for which the “shrunken log2 fold change” value turned out to be 0.00854.

With RRIRERPPRLPRPRPRPKYFPRP, the “shrunken log2 fold change” value was -0.0979. On to RRIRDRPPRLPRPRPRPWEAPRP, for which the “shrunken log2 fold change” value is -0.0176.

In the case of RRIRDRPPRLPRPRPRPDSPPRP, the “shrunken log2 fold change” value is -0.248.

In the case of RRIRIRPPRLPRPRPRPCCEPRP, the “shrunken log2 fold change” value is -0.731. For the sequence RRIRGRPPRLPRPRPRPASEPRP, the “shrunken log2 fold change” value is 1.13. As for RRIRLRPPRLPRPRPRPFHRPRP, the “shrunken log2 fold change” value was -0.246. Consider RRIRWRPPRLPRPRPRPNWRPRP, for which the “shrunken log2 fold change” value is 0.184. For the sequence RRIRQRPPRLPRPRPRPYMLPRP, the “shrunken log2 fold change” value is -0.168.

For RRIRDRPPRLPRPRPRPPTRPRP, the “shrunken log2 fold change” value came out at 0.596. With RRIRNRPPRLPRPRPRPCQMPRP, the “shrunken log2 fold change” value is -0.0139. On to RRIRHRPPRLPRPRPRPRLIPRP, for which the “shrunken log2 fold change” value is -0.0786. Take RRIRARPPRLPRPRPRPVARPRP: the “shrunken log2 fold change” value was found to be 0.647. Turning to RRIRLRPPRLPRPRPRPLWAPRP, the “shrunken log2 fold change” value was determined as 0.129.

In the case of RRIRVRPPRLPRPRPRPRTVPRP, the “shrunken log2 fold change” value came to 0.16. For RRIRLRPPRLPRPRPRPESKPRP, the “shrunken log2 fold change” value was 0.286. In the case of RRIRARPPRLPRPRPRPQVFPRP, the “shrunken log2 fold change” value was determined as 0.278. Consider RRIRRRPPRLPRPRPRPLCRPRP, for which the “shrunken log2 fold change” value is 0.224. Consider RRIRARPPRLPRPRPRPPTAPRP, for which the “shrunken log2 fold change” value was 0.744. Regarding RRIRRRPPRLPRPRPRPANTPRP, the “shrunken log2 fold change” value was 0.0917.

RRIRVRPPRLPRPRPRPEHQPRP: the “shrunken log2 fold change” value was -0.477.

As to RRIRKRPPRLPRPRPRPLLEPRP, the “shrunken log2 fold change” value amounted to 0.241. On to RRIRGRPPRLPRPRPRPWSFPRP, for which the “shrunken log2 fold change” value was -0.113. Consider RRIRGRPPRLPRPRPRPFNTPRP, for which the “shrunken log2 fold change” value is -0.309.

Take RRIRARPPRLPRPRPRPFCYPRP: the “shrunken log2 fold change” value was 0.0576.

For the sequence RRIRYRPPRLPRPRPRPAWRPRP, the “shrunken log2 fold change” value worked out at 0.0762. For the sequence RRIRQRPPRLPRPRPRPAMDPRP, the “shrunken log2 fold change” value is -0.00901. On to RRIRDRPPRLPRPRPRPVQAPRP, for which the “shrunken log2 fold change” value amounted to 0.0233. For RRIRWRPPRLPRPRPRPYCLPRP, the “shrunken log2 fold change” value was -0.633. Regarding RRIRHRPPRLPRPRPRPALAPRP, the “shrunken log2 fold change” value is 0.24.

For the sequence RRIRQRPPRLPRPRPRPMPLPRP, the “shrunken log2 fold change” value was -0.00134.

Turning to RRIRNRPPRLPRPRPRPMSMPRP, the “shrunken log2 fold change” value was -0.0143. RRIRERPPRLPRPRPRPSIGPRP: the “shrunken log2 fold change” value is -0.406. Consider RRIRLRPPRLPRPRPRPHSRPRP, for which the “shrunken log2 fold change” value was -0.0563. RRIRPRPPRLPRPRPRPSMGPRP: the “shrunken log2 fold change” value was -0.156. As to RRIRPRPPRLPRPRPRPAEQPRP, the “shrunken log2 fold change” value was 0.411.

In the case of RRIRERPPRLPRPRPRPHHPPRP, the “shrunken log2 fold change” value is -0.197. As to RRIRWRPPRLPRPRPRPMLIPRP, the “shrunken log2 fold change” value stood at 0.157.

Turning to RRIRSRPPRLPRPRPRPCVMPRP, the “shrunken log2 fold change” value was determined as 0.0389. The value for RRIRCRPPRLPRPRPRPLSHPRP was -0.432. As to RRIRRRPPRLPRPRPRPCDEPRP, the “shrunken log2 fold change” value was 0.197. Under RRIRYRPPRLPRPRPRPRDRPRP stands -0.116; under RRIRYRPPRLPRPRPRPGLDPRP, -0.188; under RRIRCRPPRLPRPRPRPHIFPRP, -1.15. As for RRIRQRPPRLPRPRPRPMIRPRP, the “shrunken log2 fold change” value was -0.0156. As for RRIRVRPPRLPRPRPRPSETPRP, the “shrunken log2 fold change” value was -0.14. The value for RRIRKRPPRLPRPRPRPSAQPRP was 1.84; that for RRIRFRPPRLPRPRPRPHTSPRP was -0.907.

Take RRIRLRPPRLPRPRPRPLITPRP: the “shrunken log2 fold change” value is -0.238. Turning to RRIRDRPPRLPRPRPRPCVEPRP, the “shrunken log2 fold change” value was determined as 0.111. On to RRIRNRPPRLPRPRPRPPVLPRP, for which the “shrunken log2 fold change” value was 0.124.

Regarding RRIRMRPPRLPRPRPRPVNMPRP, the “shrunken log2 fold change” value is -0.292. As to RRIRHRPPRLPRPRPRPRVAPRP, the “shrunken log2 fold change” value was found to be 0.395. RRIRTRPPRLPRPRPRPLEMPRP: the “shrunken log2 fold change” value came out at 0.0834. The value for RRIRDRPPRLPRPRPRPCECPRP was -0.201; that for RRIRGRPPRLPRPRPRPTGDPRP was 0.782; that for RRIRQRPPRLPRPRPRPIIHPRP was -0.054.

Consider RRIRNRPPRLPRPRPRPMRGPRP, for which the “shrunken log2 fold change” value came out at 0.211. As for RRIRDRPPRLPRPRPRPRYTPRP, the “shrunken log2 fold change” value was -0.219. On to RRIRTRPPRLPRPRPRPRVFPRP, for which the “shrunken log2 fold change” value worked out at 0.212. For RRIRERPPRLPRPRPRPEEWPRP, the “shrunken log2 fold change” value is -0.0919. As for RRIRFRPPRLPRPRPRPHVDPRP, the “shrunken log2 fold change” value was -0.00919.

As for RRIRERPPRLPRPRPRPINFPRP, the “shrunken log2 fold change” value is -0.291.

Consider RRIRSRPPRLPRPRPRPCARPRP, for which the “shrunken log2 fold change” value was found to be 0.00657. Consider RRIRDRPPRLPRPRPRPVGMPRP, for which the “shrunken log2 fold change” value is 0.37. The value for RRIRQRPPRLPRPRPRPNYEPRP was -0.123. For RRIRMRPPRLPRPRPRPMGWPRP, the “shrunken log2 fold change” value came to 0.808.

For the sequence RRIRLRPPRLPRPRPRPIFIPRP, the “shrunken log2 fold change” value was determined as 0.606. As for RRIRWRPPRLPRPRPRPGTKPRP, the “shrunken log2 fold change” value was 0.139. Consider RRIRFRPPRLPRPRPRPYTNPRP, for which the “shrunken log2 fold change” value was -1.17. Consider RRIRSRPPRLPRPRPRPNFTPRP, for which the “shrunken log2 fold change” value is -0.0286. For the sequence RRIRMRPPRLPRPRPRPKRMPRP, the “shrunken log2 fold change” value amounted to 1.06. On to RRIRGRPPRLPRPRPRPRGEPRP, for which the “shrunken log2 fold change” value was determined as 1.04. Take RRIRIRPPRLPRPRPRPFPCPRP: the “shrunken log2 fold change” value is -0.0282. As for RRIRERPPRLPRPRPRPPCNPRP, the “shrunken log2 fold change” value is -0.392. The value for RRIRYRPPRLPRPRPRPSEFPRP was -0.218; that for RRIRERPPRLPRPRPRPNEMPRP was 0.0665; that for RRIRIRPPRLPRPRPRPKNQPRP was -0.359. The value for RRIRLRPPRLPRPRPRPDWHPRP was -0.264; that for RRIRPRPPRLPRPRPRPQMAPRP was 0.129; that for RRIRERPPRLPRPRPRPKSLPRP was -0.515. RRIRKRPPRLPRPRPRPHAHPRP: the “shrunken log2 fold change” value is 0.428. For the sequence RRIRMRPPRLPRPRPRPVQMPRP, the “shrunken log2 fold change” value was 0.247. Turning to RRIRDRPPRLPRPRPRPYQQPRP, the “shrunken log2 fold change” value was -0.184. Consider RRIRFRPPRLPRPRPRPCNLPRP, for which the “shrunken log2 fold change” value is -0.264.

With RRIRKRPPRLPRPRPRPVIRPRP, the “shrunken log2 fold change” value came out at 0.0302. With RRIRWRPPRLPRPRPRPFFAPRP, the “shrunken log2 fold change” value turned out to be 0.367. With RRIRGRPPRLPRPRPRPCDGPRP, the “shrunken log2 fold change” value worked out at 0.123. As to RRIRFRPPRLPRPRPRPCIQPRP, the “shrunken log2 fold change” value was -0.0483. Turning to RRIRQRPPRLPRPRPRPSVRPRP, the “shrunken log2 fold change” value is -0.309. Regarding RRIRFRPPRLPRPRPRPKICPRP, the “shrunken log2 fold change” value is -0.0416. Turning to RRIRPRPPRLPRPRPRPAPIPRP, the “shrunken log2 fold change” value was 0.0955. Turning to RRIRWRPPRLPRPRPRPSWAPRP, the “shrunken log2 fold change” value was 0.152. The value for RRIRPRPPRLPRPRPRPVKSPRP was -0.0156; that for RRIRVRPPRLPRPRPRPPSCPRP was 0.187. With RRIRIRPPRLPRPRPRPFYYPRP, the “shrunken log2 fold change” value is -0.667. As to RRIRMRPPRLPRPRPRPLEPPRP, the “shrunken log2 fold change” value is 0.261. Consider RRIRNRPPRLPRPRPRPGSQPRP, for which the “shrunken log2 fold change” value stood at 0.0302. Consider RRIRMRPPRLPRPRPRPPSSPRP, for which the “shrunken log2 fold change” value was -0.0366. On to RRIRLRPPRLPRPRPRPVTKPRP, for which the “shrunken log2 fold change” value worked out at 0.0485.

As for RRIRFRPPRLPRPRPRPPCKPRP, the “shrunken log2 fold change” value turned out to be 0.352. In the case of RRIRRRPPRLPRPRPRPHGAPRP, the “shrunken log2 fold change” value was determined as 0.284.

Turning to RRIRYRPPRLPRPRPRPYTYPRP, the “shrunken log2 fold change” value was -0.438.

Regarding RRIRYRPPRLPRPRPRPRDLPRP, the “shrunken log2 fold change” value was -0.372. RRIRWRPPRLPRPRPRPGIGPRP: the “shrunken log2 fold change” value is 0.433.

Turning to RRIRLRPPRLPRPRPRPDSFPRP, the “shrunken log2 fold change” value is -0.0169. Under RRIRQRPPRLPRPRPRPVEPPRP stands 0.117; under RRIRDRPPRLPRPRPRPLQMPRP, 0.167.

As to RRIRSRPPRLPRPRPRPPPIPRP, the “shrunken log2 fold change” value is 0.572.
